B1: Biphenyl 2,3-dioxygenase from Sphingobium yanoikuyae strain B1, terminal oxygenase α subunit (enzyme)
chain: MSSDATLVDTVNASQSRQVFWDEDVYALEIERIFSRAWLMLGHESLVPKPGDFITTYMAEDKVILSHQSDGTFRAFINSCSHRGNQICHADSGNAKAFVCNYHGWVFGQDGSLVDVPLESRCYHNSLDKQKLAAKSVRVETYKGFIFGCHDPEAPSLEDYLGEFRYYLDTIWEGAGGGMELLGPPMKSLLQCNWKVPAENFIGDGYHVGWTHAAALSQIGGELAGLAGNRADIPFDDLGLQFTTRHGHGFGVIDNAAAGLHIKREGWTKFLEDTRGEVRRKFGPERERLYLGHWNCSIFPNCSFLYGTNTFKIWHPRGPHEIEVWTYTIVPRDADPATKSMIQREAIRTFGTAGTLESDDGENMSSATYINRGVITRNGRMNSTMGVGYEGPHPVYPGIVGISFIGETSYRGFYRFWKEMIDAPDWASVKANDDTWDSVFPNRNFWNEKLNAAE
notes: α subunit of biphenyl 2,3-dioxygenase (BPDO-OB1), Sphingobium yanoikuyae B1, encoded by bphA1f; the α subunit consists of 454 residues; residues 6-454 modelled in the structure; Co-expressed with the β subunit (bphA1fA2f in one vector); also called BPDO-OB1 α subunit; source: cloned from B1 into pET101D, expressed as described in Yu et al. [45], purified

What was measured:
[1] = target: B1; experiment: crystal structure; purified BPDO-OB1 at 20 mg/ml in 20 mM potassium phosphate pH 6.8; space group P3(1)21, complete α3β3 in the asymmetric unit; native (1.70 Å) and biphenyl-soaked crystals; conditions: both partners purified
[2] = target: the molecule itself; experiment: as above

| Binder | binding result [1] | stoichiometry N [2] |
| --- | --- | --- |
| Biphenyl 2,3-dioxygenase from Sphingobium yanoikuyae strain B1, terminal oxygenase β subunit (enzyme, β subunit of biphenyl 2,3-dioxygenase (BPDO-OB1), Sphingobium yanoikuyae B1, encoded by bphA2f; residues 5-174 modelled in the structure; Co-expressed with the α subunit (bphA1fA2f in one vector); also called BPDO-OB1 β subunit; source: cloned from B1 into pET101D, expressed as described in Yu et al. [45], purified) MSSEQIPVTPDVHYDIEAHYRAEVRMFQTGQYREWLQGMVAEDIHYWMPIYEQRLTRDRRPDPTPDDAAIYNDDFGELKQRVERLYSGQVWMEDPPSKIRYFVSNVEAFEAGNGELDVLSNILVYRNRRQTEVTVHTLGREDKLRRDGNGFKVFRRKLILDARVTQDKNLYFFC | binds | 3 |
| B1 |  | 3 |
